In paper doi:10.1101/2022.02.08.479534, “FoxP3 can fold into two distinct dimerization states with divergent functional implications for T cell homeostasis”:

Legend:
Test in all cases: EMSA; equal to sFKHM; EMSA: 0.2 uM DNA, 20 mM Tris pH 7.5, 150 mM NaCl, 1.5 mM MgCl2, 2 mM DTT, 30 min at 4 C; anti-HA bead DNA pull-down: 20 min at room temperature; the EMSA IR-FKHM4g length is taken as 31 bp
Details in all cases: protein: recombinant; tags: His6-NusA; blunt
[1] = molecular target: T1, NusA-FoxP2RBR-forkhead (Mus musculus, UniProt P58463 447-588)
T1 sequence: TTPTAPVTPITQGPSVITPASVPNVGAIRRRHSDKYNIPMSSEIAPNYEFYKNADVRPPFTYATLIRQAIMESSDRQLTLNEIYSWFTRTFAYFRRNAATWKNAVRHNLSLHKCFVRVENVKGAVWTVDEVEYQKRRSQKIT

[2] = molecular target: T2, NusA-FoxP1RBR-forkhead (Mus musculus, UniProt P58462 433-579)
T2 sequence: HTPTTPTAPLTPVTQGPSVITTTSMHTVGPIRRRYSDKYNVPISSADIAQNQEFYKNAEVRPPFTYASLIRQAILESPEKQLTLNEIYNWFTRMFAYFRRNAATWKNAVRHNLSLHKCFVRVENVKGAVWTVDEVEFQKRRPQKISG

[3] = molecular target: T3, NusA-FoxP4RBR-forkhead (Mus musculus, UniProt Q9DBY0 418-577)
T3 sequence: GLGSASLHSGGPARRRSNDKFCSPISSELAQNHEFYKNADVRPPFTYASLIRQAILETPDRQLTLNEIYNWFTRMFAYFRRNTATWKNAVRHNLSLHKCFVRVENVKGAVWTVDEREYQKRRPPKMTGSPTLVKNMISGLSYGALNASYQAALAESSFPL

Measured: binding result

B1: IR-FKHM4g (31bp) (dsDNA)
DNA 1: TTAGGAAAATTTGTTTACTCGAGTAAACAAA
DNA 2: TTTGTTTACTCGAGTAAACAAATTTTCCTAA
binds: [1] | [2] | [3]
